In patent publication US20130045200A1 one finds EC50 data, which are given here for one substance.

In this experiment the target is rat PD-L1 (rat) (UniProt D4AE25). The experiment can be described thus: flow cytometry (FACS); rat cells or protein not described. (A flow cytometer gives signals particle by particle.)

In general, EC50 refers to the concentration giving half of the maximal effect. A higher EC50 goes with lower potency in that assay. On to YW243.55.S70 (IgG) (antibody), for which the EC50 was 0.8 nM. That is a sub-nanomolar value.
